First the molecules themselves.
T1: Clec12A-His protein, Clec12A (H65-A265-WT-EOm-NIgKss-6His) (human, UniProt Q5QGZ9 65-265)
T1 construct: The protein was biotinylated for the ELISA binning assay; also called soluble Clec12A-His; soluble Clec12A
T1 sequence: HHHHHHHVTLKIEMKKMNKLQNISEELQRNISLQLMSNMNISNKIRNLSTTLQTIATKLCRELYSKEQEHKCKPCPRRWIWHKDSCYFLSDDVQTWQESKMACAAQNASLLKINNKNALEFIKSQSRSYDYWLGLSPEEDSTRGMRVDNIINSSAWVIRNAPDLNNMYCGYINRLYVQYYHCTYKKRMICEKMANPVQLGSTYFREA

B1: anti-Clec12A antibody A (antibody, V domains shown)
VH: QVQLQESGPGLVKPSETLSLTCTVSGGSISTYYWSWIRQPPGKGLEWIGYIYYSGSTKYNPSLKSRVTISVDTSKNLFSLKLSSVTAADTAVYYCAREDYYGSGSPFDYWGQGTLVTVSS
VL: IQMTQSPSSLSASVGDRVTITCRASQGIRYDLGWYQQKPGKAPKLLIYAASSLQSGVPSRFSGSGSGTDFTLTISSLQPEDFATYYCLQDYNFPRTFGQGTKVEIK
notes: Described as a human anti-Clec12A antibody derived from and produced in hybridoma, captured on anti-mouse IgG sensor chips; also called Clone A
B2: anti-Clec12A antibody B (antibody, V domains shown)
VH: QVQLVESGGGVVQPGRSLRLSCAASGFTFSSYGMHWVRQAPGKGLEWVAVISYDGSDKYYVDSVKGRFTISRDNSKNTLYLHMNSLRAEDTAVYYCARDKGYYFDYWGQGTLVTVSS
VL: EIVMTQSPATLSLSPGERATLSCRASQSVGNRYLSWYQQKPGQAPRLLIYGASTRATGIPARFSGSGSGTDFTLTISSLQPEDFAVYYCQQDYNLPLTFGGGTKVEIK
notes: Hybridoma-produced IgG; also called Clone B
B3: anti-Clec12A antibody C (antibody, V domains shown)
VH: B2 VH with Y60S, V61A, T69N, H82Q, K100G, G101S, Y102R
VL: B2 VL with V3F, G30H, N31S, R32K, R46S, L97I, G101Q, K104R, V105L
notes: Hybridoma-produced IgG; also called Clone C
B4: anti-Clec12A antibody D (antibody, V domains shown)
VH: QLQLQESGPGLVKPSETLSLTCTVSGGSISSSTYYWGWIRQPPRKGLEWIGSTHYRGSTYYNPSLKSRVTISVDTSKNQFSLKVSSVTAADTAVYYCARELTGEVFDYWGQGTLVTVSS
VL: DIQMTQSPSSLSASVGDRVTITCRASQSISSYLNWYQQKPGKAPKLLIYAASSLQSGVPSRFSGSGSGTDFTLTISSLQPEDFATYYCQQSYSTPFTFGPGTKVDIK
notes: Hybridoma-produced IgG; also called Clone D; anti-Clec12A Clone D antibody

Residue numbers refer to the chain shown, from its start.

One experiment concerns the target T1, Clec12A-His protein, Clec12A …. Put plainly: Biacore SPR; antibody captured on anti-mouse IgG chip, soluble Clec12A-His at 100 nM in solution. As to the method:
(§1) Briefly, […] anti-Clec12A antibodies derived from and produced in hybridoma were tested for their binding affinity on soluble Clec12A in a Biacore SPR system. Briefly, the antibodies were immobilized on anti-mouse IgG sensor chips and bound to soluble Clec12A-His protein (Clec12A extracellular domains fused to 6×His tag (SEQ ID NO: 79)) at 100 nM in the solution phase. The resulting Biacore traces are as shown in […]
In general terms: SPR reads the build-up and loss of mass on a sensor chip optically.
As for B1, the koff (in general, the rate constant with which the complex falls apart) was determined as 0.0132 s⁻¹ and the kon – broadly, the second-order rate constant of association – is 4.62e+06 M⁻¹ s⁻¹.
As for B2, the koff is 0.000666 s⁻¹ and the kon is 176000 M⁻¹ s⁻¹.
On to B3, for which the koff is < 1e-05 s⁻¹ and the kon was found to be 182000 M⁻¹ s⁻¹.

The next experiment has the same target. Put plainly: Biacore SPR; antibody captured on anti-mouse IgG chip, soluble Clec12A-His at 100 nM in solution; monovalent. As to the method: as §1
In the case of B4, the Kd – broadly, the equilibrium constant for the complex coming apart – was 1.99 nM.
The same measure, in the same setting: in the case of B1 it was 2.87 nM; in that of B2, 3.78 nM; in that of B3, < 0.0549 nM.

These data come from US20230111279A1 (Takeda / Millennium, published 2023).
